Laboratory results: the supplement of paper PMC7125110
± gives the standard error. For some assays here: Variants at the floor of the assay were thinned out.

B1: glmS ribozyme (parent)
chain: AUAAAAGCGCCAGAACUACAGAAAUGUAGUUGACGAGGAGGAGGUUUAUCGAAUUUUCGGCGGAUGCCUCCAAA

How the values were obtained:
Conditions in all cases: with glucosamine-6-phosphate
glucosamine-6-phosphate [1] = variants of: B1; test: kcat; higher = faster cleavage; RNA array
Procedure, shortened: (§1)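 Weighted Michaelis–Menten fits across concentrations supplied kcat and KM, based on kobs from one- or two-exponential decay fits to normalised per-tile medians. The data came from barcoded ribozyme variants transcribed in situ by E. coli RNA polymerase on sequenced MiSeq chips and tracked at 37 °C by a hybridised Cy3 probe. Glucosamine-6-phosphate (40 μM to 10 mM) in HEPES/KCl/Mg(OAc)2 buffer was flowed in.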

glucosamine-6-phosphate [2] = variants of: B1; test: self-cleavage kobs at 160 uM GlcN6P; higher = faster cleavage; RNA array
Procedure, shortened: as §1

glucosamine-6-phosphate [3] = variants of: B1; test: self-cleavage kobs at 10000 uM GlcN6P; higher = faster cleavage; RNA array
Procedure, shortened: as §1

glucosamine-6-phosphate [4] = variants of: B1; test: KM; higher = weaker cofactor use; RNA array
Procedure, shortened: as §1

glucosamine-6-phosphate [5] = variants of: B1; test: self-cleavage kobs at 2500 uM GlcN6P; higher = faster cleavage; RNA array
Procedure, shortened: as §1

glucosamine-6-phosphate [6] = variants of: B1; test: self-cleavage kobs at 40 uM GlcN6P; higher = faster cleavage; RNA array
Procedure, shortened: as §1

glucosamine-6-phosphate [7] = variants of: B1; test: self-cleavage kobs at 640 uM GlcN6P; higher = faster cleavage; RNA array
Procedure, shortened: as §1

A15U A48U
kcat (glucosamine-6-phosphate [1]): 0.000133 ± 4.2e-05 s⁻¹
self-cleavage kobs at 160 uM GlcN6P (glucosamine-6-phosphate [2]): < 1e-05 s⁻¹
self-cleavage kobs at 10000 uM GlcN6P (glucosamine-6-phosphate [3]): 4.87e-05 ± 9.2e-06 s⁻¹

A15C A33C
kcat (glucosamine-6-phosphate [1]): 6.42e-05 ± 3.3e-06 s⁻¹
KM (glucosamine-6-phosphate [4]): 1900 ± 440 µM
self-cleavage kobs at 2500 uM GlcN6P (glucosamine-6-phosphate [5]): 3.95e-05 ± 1.2e-05 s⁻¹
self-cleavage kobs at 10000 uM GlcN6P (glucosamine-6-phosphate [3]): 5.37e-05 ± 6.3e-06 s⁻¹

A14U U57A
kcat (glucosamine-6-phosphate [1]): 6.85e-05 ± 3.9e-06 s⁻¹
KM (glucosamine-6-phosphate [4]): 2120 ± 440 µM
self-cleavage kobs at 2500 uM GlcN6P (glucosamine-6-phosphate [5]): 3.51e-05 ± 1e-05 s⁻¹
self-cleavage kobs at 10000 uM GlcN6P (glucosamine-6-phosphate [3]): 5.69e-05 ± 7.6e-06 s⁻¹

A14U C67A
kcat (glucosamine-6-phosphate [1]): 0.00153 ± 0.00048 s⁻¹
KM (glucosamine-6-phosphate [4]): 1240 ± 540 µM
self-cleavage kobs at 40 uM GlcN6P (glucosamine-6-phosphate [6]): 6.24e-05 ± 7.4e-06 s⁻¹
self-cleavage kobs at 160 uM GlcN6P (glucosamine-6-phosphate [2]): 0.000172 ± 2.5e-05 s⁻¹
self-cleavage kobs at 640 uM GlcN6P (glucosamine-6-phosphate [7]): 0.000406 ± 5.4e-05 s⁻¹
self-cleavage kobs at 2500 uM GlcN6P (glucosamine-6-phosphate [5]): 0.00137 ± 0.00031 s⁻¹
self-cleavage kobs at 10000 uM GlcN6P (glucosamine-6-phosphate [3]): 0.00155 ± 0.00023 s⁻¹

A14G U46C
kcat (glucosamine-6-phosphate [1]): 0.0067 ± 0.0025 s⁻¹
self-cleavage kobs at 40 uM GlcN6P (glucosamine-6-phosphate [6]): 0.000504 ± 0.00011 s⁻¹
self-cleavage kobs at 640 uM GlcN6P (glucosamine-6-phosphate [7]): 0.00207 ± 0.00084 s⁻¹
self-cleavage kobs at 2500 uM GlcN6P (glucosamine-6-phosphate [5]): 0.00744 ± 0.0013 s⁻¹
self-cleavage kobs at 10000 uM GlcN6P (glucosamine-6-phosphate [3]): 0.00545 ± 0.002 s⁻¹

A14G U46G
kcat (glucosamine-6-phosphate [1]): 0.0115 ± 0.0033 s⁻¹
KM (glucosamine-6-phosphate [4]): 997 ± 360 µM
self-cleavage kobs at 40 uM GlcN6P (glucosamine-6-phosphate [6]): 0.000421 ± 7.1e-05 s⁻¹
self-cleavage kobs at 160 uM GlcN6P (glucosamine-6-phosphate [2]): 0.00247 ± 0.001 s⁻¹
self-cleavage kobs at 640 uM GlcN6P (glucosamine-6-phosphate [7]): 0.00524 ± 0.0017 s⁻¹
self-cleavage kobs at 2500 uM GlcN6P (glucosamine-6-phosphate [5]): 0.0199 ± 0.0079 s⁻¹
self-cleavage kobs at 10000 uM GlcN6P (glucosamine-6-phosphate [3]): 0.00927 ± 0.0027 s⁻¹

C16A U46G C70G
kcat (glucosamine-6-phosphate [1]): 2.12e-05 ± 3.1e-06 s⁻¹

C16A C58A
kcat (glucosamine-6-phosphate [1]): 0.000107 ± 7.2e-06 s⁻¹
KM (glucosamine-6-phosphate [4]): 1510 ± 430 µM
self-cleavage kobs at 2500 uM GlcN6P (glucosamine-6-phosphate [5]): 7.24e-05 ± 1.4e-05 s⁻¹
self-cleavage kobs at 10000 uM GlcN6P (glucosamine-6-phosphate [3]): 9.21e-05 ± 1.1e-05 s⁻¹

G29A G41C
kcat (glucosamine-6-phosphate [1]): 3.14e-05 ± 5.6e-06 s⁻¹
self-cleavage kobs at 2500 uM GlcN6P (glucosamine-6-phosphate [5]): 2.97e-05 ± 1.2e-05 s⁻¹

A15U G35A
kcat (glucosamine-6-phosphate [1]): < 1e-05 s⁻¹
self-cleavage kobs at 40 uM GlcN6P (glucosamine-6-phosphate [6]): < 1e-05 s⁻¹
self-cleavage kobs at 10000 uM GlcN6P (glucosamine-6-phosphate [3]): < 1e-05 s⁻¹

A14U G38A
kcat (glucosamine-6-phosphate [1]): < 1e-05 s⁻¹
self-cleavage kobs at 10000 uM GlcN6P (glucosamine-6-phosphate [3]): < 1e-05 s⁻¹

A15U G29A
kcat (glucosamine-6-phosphate [1]): 0.00194 ± 0.00084 s⁻¹
self-cleavage kobs at 160 uM GlcN6P (glucosamine-6-phosphate [2]): 7.32e-05 ± 1.6e-05 s⁻¹
self-cleavage kobs at 640 uM GlcN6P (glucosamine-6-phosphate [7]): 0.000218 ± 4.3e-05 s⁻¹
self-cleavage kobs at 2500 uM GlcN6P (glucosamine-6-phosphate [5]): 0.00039 ± 0.0001 s⁻¹
self-cleavage kobs at 10000 uM GlcN6P (glucosamine-6-phosphate [3]): 0.00142 ± 0.0002 s⁻¹

G29U A39C
kcat (glucosamine-6-phosphate [1]): 0.00147 ± 0.00028 s⁻¹
KM (glucosamine-6-phosphate [4]): 2170 ± 670 µM
self-cleavage kobs at 40 uM GlcN6P (glucosamine-6-phosphate [6]): 2.91e-05 ± 9.8e-06 s⁻¹
self-cleavage kobs at 160 uM GlcN6P (glucosamine-6-phosphate [2]): 8.26e-05 ± 1.4e-05 s⁻¹
self-cleavage kobs at 640 uM GlcN6P (glucosamine-6-phosphate [7]): 0.000457 ± 5.8e-05 s⁻¹
self-cleavage kobs at 2500 uM GlcN6P (glucosamine-6-phosphate [5]): 0.000781 ± 0.0001 s⁻¹
self-cleavage kobs at 10000 uM GlcN6P (glucosamine-6-phosphate [3]): 0.00118 ± 0.00014 s⁻¹

C16A C34U C71U
kcat (glucosamine-6-phosphate [1]): 1.28e-05 ± 4.6e-06 s⁻¹
self-cleavage kobs at 160 uM GlcN6P (glucosamine-6-phosphate [2]): < 1e-05 s⁻¹

A15C U30C
kcat (glucosamine-6-phosphate [1]): 0.000215 ± 7.8e-05 s⁻¹
self-cleavage kobs at 640 uM GlcN6P (glucosamine-6-phosphate [7]): 8.27e-05 ± 2.3e-05 s⁻¹
self-cleavage kobs at 2500 uM GlcN6P (glucosamine-6-phosphate [5]): 8.21e-05 ± 1.5e-05 s⁻¹
self-cleavage kobs at 10000 uM GlcN6P (glucosamine-6-phosphate [3]): 0.000177 ± 2.6e-05 s⁻¹

G29U G59C
kcat (glucosamine-6-phosphate [1]): < 1e-05 s⁻¹
self-cleavage kobs at 40 uM GlcN6P (glucosamine-6-phosphate [6]): < 1e-05 s⁻¹
self-cleavage kobs at 2500 uM GlcN6P (glucosamine-6-phosphate [5]): < 1e-05 s⁻¹
self-cleavage kobs at 10000 uM GlcN6P (glucosamine-6-phosphate [3]): < 1e-05 s⁻¹

A14U U31G A39C
kcat (glucosamine-6-phosphate [1]): 0.000999 ± 0.00027 s⁻¹
KM (glucosamine-6-phosphate [4]): 4360 ± 1700 µM
self-cleavage kobs at 160 uM GlcN6P (glucosamine-6-phosphate [2]): 5.41e-05 ± 2e-05 s⁻¹
self-cleavage kobs at 640 uM GlcN6P (glucosamine-6-phosphate [7]): 0.000117 ± 2.6e-05 s⁻¹
self-cleavage kobs at 2500 uM GlcN6P (glucosamine-6-phosphate [5]): 0.000373 ± 9.9e-05 s⁻¹
self-cleavage kobs at 10000 uM GlcN6P (glucosamine-6-phosphate [3]): 0.000701 ± 0.00017 s⁻¹

A15C G40A
kcat (glucosamine-6-phosphate [1]): 0.000642 ± 0.00018 s⁻¹
KM (glucosamine-6-phosphate [4]): 1860 ± 840 µM
self-cleavage kobs at 40 uM GlcN6P (glucosamine-6-phosphate [6]): 2.42e-05 ± 9.8e-06 s⁻¹
self-cleavage kobs at 160 uM GlcN6P (glucosamine-6-phosphate [2]): 8.81e-05 ± 2.4e-05 s⁻¹
self-cleavage kobs at 640 uM GlcN6P (glucosamine-6-phosphate [7]): 0.000149 ± 2e-05 s⁻¹
self-cleavage kobs at 2500 uM GlcN6P (glucosamine-6-phosphate [5]): 0.000365 ± 7.3e-05 s⁻¹
self-cleavage kobs at 10000 uM GlcN6P (glucosamine-6-phosphate [3]): 0.000584 ± 0.00012 s⁻¹
